Values belong to the binder of their own block, whether it stands above or below them. Ends that are not written are not given here.
Assays:
[1] = target: T1, full length Karet protein (RRS bait) (mouse, UniProt Q8K2Y9 1-453); experiment: RRS screen in yeast, whole Karet protein against an embryonic mouse brain library
T1 construct: Yeast RRS construct; fusion partner not described; also called whole Karet protein
Source text: The Ras rescue system (RRS) method is based on translocation of a mammalian cytoplasmic Ras to the plasma membrane, resulting in activation of a viability pathway in yeast (Broder, Y. C., S. Katz, and A. Aronheim. Curr Biol, 1998. 8 (20): p. 1121-4; Aronheim, A. Methods Mol Biol, 2004. 250: p. 251-62; Hubsman, M., G. et al. Nucleic Acids Res, 2001. 29 (4): p. E18).

[2] = target: T2, recombinant PTB-domain containing Karet(1-228) truncation mutant (mouse, UniProt Q8K2Y9 1-228); experiment: in-vitro precipitation with biotinylated peptide on streptavidin beads, blot anti-His
T2 construct: Recombinant protein for in-vitro precipitation; also called recombinant Karet protein; Karet PTB domain
T2 sequence: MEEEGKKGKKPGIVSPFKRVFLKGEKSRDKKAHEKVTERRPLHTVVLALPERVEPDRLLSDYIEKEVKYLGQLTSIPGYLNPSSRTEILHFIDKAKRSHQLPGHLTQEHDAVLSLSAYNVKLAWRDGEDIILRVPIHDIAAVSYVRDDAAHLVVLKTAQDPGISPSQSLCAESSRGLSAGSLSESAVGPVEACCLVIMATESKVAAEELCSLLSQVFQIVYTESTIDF

binding result [1]: binds
B1: Cysteine and glycine-rich protein 1 (Csrp1), mRNA (other, mouse, UniProt P97315 1-193, looked up)
chain: MPNWGGGKKCGVCQKTVYFAEEVQCEGNSFHKSCFLCMVCKKNLDSTTVAVHGEEIYCKSCYGKKYGPKGYGYGQGAGTLSTDKGESLGIKHEEAPGHRPTTNPNASKFAQKIGGSERCPRCSQAVYAAEKVIGAGKSWHKSCFRCAKCGKGLESTTLADKDGEIYCKGCYAKNFGPKGFGFGQGAGALVHSE
notes: RRS library clone (embryonic mouse brain)

binding result [1]: binds
B2: Cyclin D1, mRNA (other, mouse, UniProt P25322 1-295, looked up)
chain: MEHQLLCCEVETIRRAYPDTNLLNDRVLRAMLKTEETCAPSVSYFKCVQKEIVPSMRKIVATWMLEVCEEQKCEEEVFPLAMNYLDRFLSLEPLKKSRLQLLGATCMFVASKMKETIPLTAEKLCIYTDNSIRPEELLQMELLLVNKLKWNLAAMTPHDFIEHFLSKMPEADENKQTIRKHAQTFVALCATDVKFISNPPSMVAAGSVVAAMQGLNLGSPNNFLSCYRTTHFLSRVIKCDPDCLRACQEQIEALLESSLRQAQQNVDPKATEEEGEVEEEAGLACTPTDVRDVDI
notes: as for B1

binding result [2]: binds
B3: biotinylated synthetic TrkA juxtamembrane region peptide, position 458-484 (peptide)
peptide: MSLHFMTLGGSSLSPTEGKGSGLQGHI
modifications: also: biotinylated (position not given here)
notes: Immobilized on streptavidin beads; also called TrkA peptide
